Measured values as given in article PMC2048530.

Molecular target: DC-SIGN-Fc (human) (UniProt Q9NNX6)
Sequence of UniProt Q9NNX6 (Q9NNX6 59-404): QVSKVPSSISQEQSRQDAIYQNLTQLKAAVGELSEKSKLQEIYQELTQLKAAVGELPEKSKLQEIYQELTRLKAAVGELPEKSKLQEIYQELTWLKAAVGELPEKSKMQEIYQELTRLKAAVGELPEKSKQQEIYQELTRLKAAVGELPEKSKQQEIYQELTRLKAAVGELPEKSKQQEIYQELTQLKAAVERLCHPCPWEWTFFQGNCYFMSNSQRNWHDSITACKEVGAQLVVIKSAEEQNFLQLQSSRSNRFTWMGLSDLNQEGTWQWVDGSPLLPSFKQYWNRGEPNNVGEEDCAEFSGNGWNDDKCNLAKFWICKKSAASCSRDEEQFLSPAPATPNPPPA

## HIV-1 JR-FL gp120 (recombinant monomeric gp120; mock-treated form M-gp120) (natural protein)
  IL-10 induction in iMDDCs by JR-FL gp120 (3 μg/ml) at 24 h after pre-incubation of the cells with anti-DC-SIGN mAb AZN-D1 (40 μg/ml); DC-SIGN here is the whole receptor on MDDCs: 50 % reduction
